{
  "source": "the DeepSol protein solubility set",
  "data": [
    {"assay": "soluble on expression in E. coli; label from the status in PepcDB or PDB records", "values": [
      {"sequence": "MTMETVESQHDGSITASLTESKSAHVQTQTGQNSIPALAQVAAIAETDESAESGGVIDSHKRREILSRRPSYRKILNELSSDVPGVPKIEEERSEEEGTPPSIATMAVPTSIYQTSTGQYIAIAQGGTIQISNPGSDGVQGLQALTMTNSGAPPPGATIVQYAAQSADGTQQFFVPGSQVVVQAATGDMPTYQIRAPTAALPQGVVMAASPGSLHSPQQLAEEATRKRELRLMKNREAAKECRRRKKE", "soluble on expression in E. coli": "soluble"},
      {"sequence": "MGLVGLHSGTIDMEFIGVEDHGDEEGKQIAVSVISSGKNADKTEDPDSLIFTGFGGTDMYHGQPCNQKLERLNIPLEAAFRKKSIVRVVRCMKDEKRTNGNIYIYDGTYMITNRWEEEGQNGFIVFKFKLVREPDQKPAFGIWKSIQNWRNGLSIRPGLILEDLSNGAENLKVCLVNEVDKENGPALFRYVTSLIHEVINNIPSMVDRCACGRRSCGSKHVFREKLSVSSSLVISAKKSGNVARFMNHSCSPNVFWQSIAREQNGLWCLYIGFFAMKHIPPLTELRYDYGKSRGGGKKMCLCRTKKCCGSFG", "soluble on expression in E. coli": "soluble"},
      {"sequence": "MSLEPVFQLRKELNVFASEEGGATEDISSYAATADSSGITEWNTSDKFTNEMTLTENAKYTVSQLAPNLSFLPEQATDLTGAVDYYSGNALCNDRENLYIWPFNSPQRRLACIRIPLHEEHEVLSGAPLCCFTWPSAGEESEQTKSAGVLIVHANSGLVQFYEDIHTINSVSTLISKSRVIQLDLRFRDREHATDVVNAEPSGILVATSFGRLLLLTIRDSSGKPCLKLRQQLIKSQVGFFSGAMNTFKDIVAIKPSLITGKGERLLLTITRGGELKIWNVSATMSSYKRVEVNVYQQILESLQELYPFAYGSLQILDLNPLPSDPYSLLVLSSISDGKETYYILTAIKVEESSFSIFSVYRLNTYTKANDKKPRLFIAGDLENGEQPIEPQNVPVYLLFEDAVVITQAFTQLDSNYPLRKKWEDLVSLKEDSMVLGHGNDEKALYLINGNRGVVKIEAKMEPSEDYRFVKSHIDQAVYFSEGHHHHHH", "soluble on expression in E. coli": "soluble"},
      {"sequence": "EKDTIAAEHKQEASVLLNLHRNKINYLIGETMARMTSLSIAIDRPVDIKKMQSILEKTFDSEPRFSGLYFLNAKGDVTASTTELKTKVNLADRSFFIKAKETKKTVISDSYSSRITGQPIFTICVPVLDSKRNVTDYLVAAIQIDYLKNLINLLSPDVYIEVVNQDGKMIFASGQASHAEDQKPVSGYLDDISWNMKVYPNPVTIEELSKS", "soluble on expression in E. coli": "not soluble"},
      {"sequence": "MSLSSDRLIYLPLGGAGEIGMNAYVYGYGKPGKERLILVDLGVTFPDMDTTPGVDLIMPDIAWLAKNRDRLEAVFITHAHEDHVGAVAHLYDRLGAPVYARAFTANIARRKMGEHGHPDEAVTTVSAWPEMTEAGPFQVGFVPLSHSIPESSGLVIDTPAGRIVHSGDFKLDENPIVGEAFDRKLWEEVAKPGVKVFACDSTNVMSRHPGRSESSVGGEIEKLVGTAEGVFVATTFASNVARVLTLAEAGQRAGRSVCLLGRAMRRMIEAAIETGVLADFPRTVSPEDARNIPRENLMLIVTGSQGERRAASAQLANGKYQGIELKEGDMFLFSSKTIPGNERGVLRIVNQLSEKGVDVIDDSSGLYHVSGHANRPDLETMHEILQPEILVPMHGEHRHLREHVKLADKRGIKGILAVNGMMIDLTGEGHHHHHH", "soluble on expression in E. coli": "soluble"},
      {"sequence": "MSRNVGVLGQMSEINDHLYLSGAGVLKPDKIKQRKINMIVNATTEEPSTYMQGVDTMKIRIEDHPYARLNEHFDVVADKIRNVKERGGKTLVHCMAGVSRSASLVMIYLVKHEHMTLRQAYHYVKAARPIIRPNVGFWKQMVDYEKRLRGTASVKMVQTPECDMPIPDVYADDIRRMQINREISRHSLPSAQSSASKQRAFSASTYRPSVSSASSLATSSLRRAYSPSSLPASSLALTTSYSLFSPAPTRKPRQSLFSMYSTSPRHNFFSAF", "soluble on expression in E. coli": "not soluble"},
      {"sequence": "SLPVRESLQKQVKILIGLGNLGFGGYRGLYTRFTNPNGFLEPASSDLLLINERRNLSVIGAVSRTFSVPSVSGPAFQVCGYHIDLLLSDPCKSMASLGSKSLFVDRHSASLVSKRFTGGMVSGDGPNRGRISMRLRGKDHNEKSTICAYFAYRGAKRWIYLNQQRRGMGFRGLHSSLSNRLSAGNAPDVSLDNSVTDEQVRDSSDSVAAKLCTKPLKLVSGSCYLPHPDKEATGGEDAHFICAEEQALGVADGVGGWAELGIDAGYYSRELMSNSVNAIQDEPKGSIDPARVLEKAHTCTKSQGSSTACIIALTNQGLHAINLGDSGFMVVREGHTVFRSPVQQHDFNFTYQLESGRNGDLPSSGQVFTVAVAPGDVIIAGTDGLFDNLYNNEITAIVVHAVRTNIDPQVTAQKIAALARQRAQDKNRQTPFSTAAQDAGFRYYGGKLDDITVVVSYVAASKEEGKH", "soluble on expression in E. coli": "soluble"},
      {"sequence": "MEDHSSSIAVHKLDGDLLLRTAEIGDADMIAAYFQSNRDYLKPFEPKREEAFFSVNGWLQKLIKLNELHRMGLGYYCLLIHVDT", "soluble on expression in E. coli": "not soluble"},
      {"sequence": "MTAKQFRHGGENLAVRYALADCELGRCLVAESERGICAILLGDDDATLISELQQMFPAADNAPADLMFQQHVREVIASLNQRDTPLTLPLDIRGTAFQQQVWQALRTIPCGETVSYQQLANAIGKPKAVRAVASACAANKLAIVIPCHRVVRGDGSLSGYRWGVSRKAQLLRREAENEER", "soluble on expression in E. coli": "soluble"},
      {"sequence": "MRLSMENIMNNPVIGVVMCRNRLKGHATQTLQEKYLNAIIHAGGLPIALPHALAEPSLLEQLLPKLDGIYLPSSPSNVQPHLYGENGDEPDADPGRDLLSMAIINAALERRIPIFAICRGLQELVVATGGSLHRKLCEQPELLEHREDPELPVEQQYAPSHEVQVEEGGLLSALLPECSNFWVNSLHGQGAKVVSPRLRVEARSPDGLVEAVSVINHPFALGVQWHPEWNSSEYALSRILFEGFITAWQHHIAEKQRL", "soluble on expression in E. coli": "not soluble"},
      {"sequence": "MGAFDRVKAQVASDSKWTSAPYKGFVAGSPSNTYIDIVSTAFEDATNTMNFARHSKYDEMYSPYLGSFRERHNYTSIAPSLCINKTNRAIEYDLAPHKAYNPRQSEWLLEKDKKYRVRGARNLIYTKSASDISLPPLTRRTFTVPTDTLRHQNQFLYWNGRALGLDYVAPFLRREDYSRHEDRRYQRIYWSPHFIDLLPSCRHSAHLMLSAY", "soluble on expression in E. coli": "not soluble"},
      {"sequence": "MGHHHHHHSHNLGPRLTPLLQEEDSHQRLLMGLMVSELKDHFLRHLQGVEKKKIEQMVLDYISKLLDLICHIVETNWRKHNLHSWVLHFNSRGSAAEFAVFHIMTRILEATNSLFLPLPPGFHTLHTILGVQCLPLHNLLHCIDSGVLLLTETAVIRLMKDLDNTEKNEKLKFSIIVRLPPLIGQKICRLWDHPMSSNIISRNHVTRLLQNYKKQPRNSMINKSSFSVEFLPLNYFIEILTDIESSNQALYPFEGHDNVDAEFVEEAALKHTAMLLGL", "soluble on expression in E. coli": "not soluble"},
      {"sequence": "MDVSYLLDSLNDKQREAVAAPRSNLLVLAGAGSGKTRVLVHRIAWLMSVENCSPYSIMAVTFTNKAAAEMRHRIGQLMGTSQGGMWVGTFHGLAHRLLRAHHMDANLPQDFQILDSEDQLRLLKRLIKAMNLDEKQWPPRQAMWYINSQKDEGLRPHHIQSYGNPVEQTWQKVYQAYQEACDRAGLVDFAELLLRAHELWLNKPHILQHYRERFTNILVDEFQDTNNIQYAWIRLLAGDTGKVMIVGDDDQSIYGWRGAQVENIQRFLNDFPGAETIRLEQNYRSTSNILSAANALIENNNGRLGKKLWTDGADGEPISLYCAFNELDEARFVVNRIKTWQDNGGALAECAILYRSNAQSRVLEEALLQASMPYRIYGGMRFFERQEIKDALSYLRLIVNRNDDAAFERVVNTPTRGIGDRTLDVVRQTSRDRQLTLWQACRELLQEKALAGRAASALQRFMELIDALAQETADMPLHVQTDRVIKDSGLRTMYEQEKGEKGQTRIENLEELVTATRQFSYNEEDEDLMPLQAFLSHAALEAGEGQADTWQDAVQLMTLHSAKGLEFPQVFIVGMEEGMFPSQMSLDEGGRLEEERRLAYVGVTRAMQKLTLTYAETRRLYGKEVYHRPSRFIGELPEECVEEVRLRATVSRPVSHQRMGTPMVENDSGYKLGQRVRHAK", "soluble on expression in E. coli": "soluble"},
      {"sequence": "MHKAGLLGLCARAWNSVRMASSGMTRRDPLANKVALVTASTDGIGFAIARRLAQDGAHVVVSSRKQQNVDQAVATLQGEGLSVTGTVCHVGKAEDRERLVATAVKLHGGIDILVSNAAVNPFFGSIMDVTEEVWDKTLDINVKAPALMTKAVVPEMEKRGGGSVVIVSSIAAFSPSPGFSPYNVSKTALLGLTKTLAIELAPRNIRVNCLAPGLIKTSFSRMLWMDKEKEESMKETLRIRRLGEPEDCAGIVSFLCSEDASYITGETVVVGGGTPSRL", "soluble on expression in E. coli": "not soluble"},
      {"sequence": "MPKSEIRKLLQEIKKQVDNPGNSSTTEIKKMASEAGIDEQTAEEIYHLLTEFYQAVEEHGGIEKYMHSNISWLKIELELLSACYQIAILEDMKVLDISEMLSLNDLRIFPKTPSQLQNTYYKLKKELIQVEDIPKNKPGRKRKTQKNTKKEKTNIFGKVVPALEHHHHHH", "soluble on expression in E. coli": "soluble"},
      {"sequence": "VGTIDQLVKRVIEGSLSPKERTLLKEDPAYWFLSDENSLEYKYYKLKLAEMQR", "soluble on expression in E. coli": "soluble"},
      {"sequence": "MRKTLTALFIAAALPTFAMAAPAANDLPPPPMEGGHMMGQHGPRHGGPMKELDLTREQRQQMGKLMGEQMKARHEITQRYLAKLPAAEQKALKDELKASHEKTQKDIRALLTPEQQKKFDELQKKREQRKAEWAEFQQWKADKKSNLEHHHHHH", "soluble on expression in E. coli": "soluble"},
      {"sequence": "MGSDKIHHHHHHMLSDKQKKHILVNRDGLKYYTVEGLEKVHEEMLRLLLIIDTIAKENNIPYWIDGGSLIGIVRHKGFIPWDDDLDISLLKKDYLRLIKEISMYCEMHNDVALFYNEPLVEHTCNFFASKKVFSRTQGSCVLVPVKIDIRPVNCIVKNKDNVIENNIYRDTANYIIFGKSYGYMKKTLSHKNEQMDFLEYYNYKYGLVDSGLENVIMVHPYFEFSNTFELTYNDLFPLKMLQFENMLLPVPNNYDYLLKELYGDYMSYPNICHRAPVACQIYQRQLKDNRFNLCLSMFKHTNRGLLYRMRIILVQIRLLGVFEYMKIKIYE", "soluble on expression in E. coli": "not soluble"},
      {"sequence": "MSLNSYVLGFKEIDKTKISMVGGKGANLGELSRVAGILIPEGFCVTTEAYKKIIEKSKEFNELLDELSCLRLEDGEKVYEVSKKIRMVIERISIPKDIVEEIDVYLTRLGEKDAYAVRSSATAEDLPTASFAGQQDTYLNIIGKKSILEHISKCWASLFTDRAVIYRLQNGFDHRKVYISVVIQKMIFPKAAGILFTADPVNSNRKVLSIDASFGLGEALVSGLVNADMYKVLSGKITDKKVSKKKLAIYASKDGGTKAQELEIEKQNKQVLTEEQILQLEHIGRSIEEHFSFPQDIEWCLNQDTFYILQSRPITTLYPIPKANDEENHVYISVGHQQMMTDPLKPLGMSLYELTSFGNRFKAGGRLFFDVTQMLASKDSRKMLLNNMEQHDPLMKDALVTIIERDFIKALPSDNGNQSKSNKGVSAGESENQIENNPTIVSDLINKNQASIEELKENIKTKSGLELIDFIRTDVEELKKILSDPQSSAVFMTAINASHWINEKMRDWLGEKNAADILSQSVPNNITSKMGLELLEIADVIRPYPEIIDYLQHVKDDNFLEEIVKFNGGHEVKNAILSYLSKYGMRCSGEIDITRTRLSEKPITLVPMILNNIKNFETGAANIKFQQGKQKALEKEQELLERLKQLPDGEQKAKETKRMIKLIRNFIGYREYPKYGMVNRYFIYKQALMKEAEKLANIGAIHEKEDIYYLTFEELREVIRTKKVDYSIINKRKNEHKLYEKLIPPRVITSDGEIVEGEYKRENVPEGAIIGLSVSSGVIEGRARVILNMEDANLEAGDILVTSFTDPSWTPLFVSIKGLVTEVGGLMTHGAVIAREYGLPAVIGVENATKLIKDGQQIRVNGTEGYVEILEGHHHHHH", "soluble on expression in E. coli": "soluble"}
    ]}
  ]
}
